One protein from ChEMBL document CHEMBL5244221, “Synthesis and structure-activity relationship studies of cruzain and rhodesain inhibitors” (Eur J Med Chem, 2018) can be followed below.

Substrate in series [1]: CCCC[C@@H](C(=O)Nc1ccc2c(C)c(CC(=O)O)c(=O)oc2c1)n1cc([C@@](C)(NCc2ccc(F)cc2)C(C)C)nn1
Description: (§1) Binding affinity to Trypanosoma cruzi Cruzain assessed as Kcat/Km.

Substrate in series [2]: CCCC[C@@H](C(=O)Nc1ccc2c(C)c(CC(=O)O)c(=O)oc2c1)n1cc([C@@](C)(NCc2ccc(OC)cc2)C(C)C)nn1
The series is described as §1.

Substrate in series [3]: CCCC[C@@H](C(=O)Nc1ccc2c(C)c(CC(=O)O)c(=O)oc2c1)n1cc([C@@](C)(NCc2ccc3ncccc3c2)C(C)C)nn1
The description is as §1.

Substrate in series [4]: CCCC[C@@H](C(=O)Nc1ccc2c(C)c(CC(=O)O)c(=O)oc2c1)n1cc([C@@](C)(NCc2ccc3ncsc3c2)C(C)C)nn1
The series is described as §1.

Substrate in series [5]: CCCC[C@@H](C(=O)Nc1ccc2c(C)c(CC(=O)O)c(=O)oc2c1)n1cc([C@@](C)(NCc2ccccc2)C(C)C)nn1
Described as §1.

B1: Cruzipain (Trypanosoma cruzi), P25779 (protein)
chain: MSGWARALLLAAVLVVMACLVPAATASLHAEETLTSQFAEFKQKHGRVYESAAEEAFRLSVFRENLFLARLHAAANPHATFGVTPFSDLTREEFRSRYHNGAAHFAAAQERARVPVKVEVVGAPAAVDWRARGAVTAVKDQGQCGSCWAFSAIGNVECQWFLAGHPLTNLSEQMLVSCDKTDSGCSGGLMNNAFEWIVQENNGAVYTEDSYPYASGEGISPPCTTSGHTVGATITGHVELPQDEAQIAAWLAVNGPVAVAVDASSWMTYTGGVMTSCVSEQLDHGVLLVGYNDSAAVPYWIIKNSWTTQWGEEGYIRIAKGSNQCLVKEEASSAVVGGPGPTPEPTTTTTTSAPGPSPSYFVQMSCTDAACIVGCENVTLPTGQCLLTTSGVSAIVTCGAETLTEEVFLTSTHCSGPSVRSSVPLNKCNRLLRGSVEFFCGSSSSGRLADVDRQRRHQPYHSRHRRL
Regarding B1, the kcat/Km is 4 in series [1]; 6.5 in series [2]; 19 in series [3]; 19 in series [4]; 3.5 in series [5].
